This note sets out measurements from patent US20250320281A1.

Test in all cases: cell-based or functional assay
Assay [1] concerns the target HIV-1 APV-17 envelope glycoprotein (Env) on pseudovirus (HIV-1).
Assay [2] has as its target HIV-1 Env of isolate 6535.3 (Acute), clade B, on pseudovirus (HIV-1).
Assay [3] addresses HIV-1 Env of isolate 92BR020, clade B, on pseudovirus (HIV-1).
Assay [4] deals with HIV-1 Env of isolate 92UG046 (clade D pseudovirus) (HIV-1).
The target of assay [5] is HIV-1 Env of isolate APV_13, clade B, on pseudovirus (HIV-1).
The target of assay [6] is HIV-1 Env of isolate APV_17, clade B, on pseudovirus (HIV-1).
Assay [7] deals with HIV-1 Env of isolate LAVIC_18 (HIV-1).
The target of assay [8] is HIV-1 Env of isolate MGRM-Chronic-B-001, clade B, on pseudovirus (HIV-1).
The target in assay [9] is HIV-1 Env of isolate MGRM-D-001 (clade D pseudovirus) (HIV-1).
Assay [10] concerns the target HIV-1 Env of isolate MGRM-D-004 (clade D pseudovirus) (HIV-1).
Assay [11] addresses HIV-1 Env of isolate MGRM-D-008 (clade D pseudovirus) (HIV-1).
The target of assay [12] is HIV-1 Env of pseudovirus JRFL (HIV-1).
For assay [13], the target named is HIV-1 Env of pseudovirus MGRM-AE-006 (clade CRF01_AE) (HIV-1).
Assay [14] addresses HIV-1 Env of pseudovirus MGRM-AG-002 (clade CRF_AG) (HIV-1).
For assay [15], the target named is HIV-1 Env of pseudovirus MGRM-AG-003 (clade CRF_AG) (HIV-1).
Assay [16] has as its target HIV-1 Env of pseudovirus MGRM-F1-023 (HIV-1).
Assay [17] has as its target HIV-1 NL43 envelope glycoprotein (Env) on pseudovirus (HIV-1).
The target of assay [18] is HIV-1 envelope glycoprotein (Env) of isolate MGRM-A-006, clade A (HIV-1).
Assay [19] concerns the target HIV-1 Env of isolate 92RW008 (HIV-1).
Assay [20] has as its target HIV-1 Env of isolate 92UG001 (HIV-1).
The target of assay [21] is HIV-1 Env of isolate 92UG024 (clade D), on pseudovirus (HIV-1).
In assay [22] the target is HIV-1 Env of isolate 93TH305 (HIV-1).
The target of assay [23] is HIV-1 Env of isolate APV-6 (HIV-1).
Assay [24] concerns the target HIV-1 Env of isolate CAAN.A2 (subtype B) (HIV-1).
In assay [25] the target is HIV-1 Env of isolate JRCSF (subtype B) (HIV-1) (UniProt P20871).
For assay [26], the target named is HIV-1 Env of isolate MG RM-D-005 (HIV-1).
Assay [27] deals with HIV-1 Env of isolate MGRM-A-001 (HIV-1).
The target of assay [28] is HIV-1 Env of isolate MGRM-AE-002 (subtype AE) (HIV-1).
The target of assay [29] is HIV-1 Env of isolate MGRM-AE-005 (subtype AE) (HIV-1).
Assay [30] addresses HIV-1 Env of isolate MGRM-AE-008 (subtype AE) (HIV-1).
The target of assay [31] is HIV-1 Env of isolate MGRM-AG-002 (subtype AG) (HIV-1).
Assay [32] addresses HIV-1 Env of isolate MGRM-C-001 (subtype C) (HIV-1).
Assay [33] addresses HIV-1 Env of isolate MGRM-Chronic-B-023 (subtype B) (HIV-1).
In assay [34] the target is HIV-1 NL43 Env (pseudovirus, clade B) (HIV-1).

Bounds are passed on as bounds.

Sequence of 1443_C16 (PG16) (TCN-116) (antibody) (VH): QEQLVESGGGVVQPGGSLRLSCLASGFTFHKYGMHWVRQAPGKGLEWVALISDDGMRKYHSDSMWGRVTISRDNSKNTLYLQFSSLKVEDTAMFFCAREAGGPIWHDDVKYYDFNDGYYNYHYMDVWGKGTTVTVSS
Sequence of 1443_C16 (PG16) (TCN-116) (antibody) (VL): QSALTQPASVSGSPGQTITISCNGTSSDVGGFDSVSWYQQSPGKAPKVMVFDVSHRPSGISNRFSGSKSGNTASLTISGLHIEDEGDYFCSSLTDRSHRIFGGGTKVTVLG
Sequence of 5329_C19 (PGT-136) (antibody) (VH): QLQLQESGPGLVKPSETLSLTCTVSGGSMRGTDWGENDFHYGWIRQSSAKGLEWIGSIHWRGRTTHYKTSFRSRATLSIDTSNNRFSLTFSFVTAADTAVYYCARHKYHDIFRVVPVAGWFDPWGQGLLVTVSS
Sequence of 5329_C19 (PGT-136) (antibody) (VL): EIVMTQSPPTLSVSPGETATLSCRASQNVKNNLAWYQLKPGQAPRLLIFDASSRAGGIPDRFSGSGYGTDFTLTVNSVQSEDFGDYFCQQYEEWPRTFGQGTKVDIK
Sequence of 5345_I01 (PGT-137) (antibody) (VH): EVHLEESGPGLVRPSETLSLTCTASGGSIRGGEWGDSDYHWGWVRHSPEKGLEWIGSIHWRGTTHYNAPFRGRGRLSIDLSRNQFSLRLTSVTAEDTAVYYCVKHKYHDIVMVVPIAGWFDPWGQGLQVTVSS
Sequence of 5345_I01 (PGT-137) (antibody) (VL): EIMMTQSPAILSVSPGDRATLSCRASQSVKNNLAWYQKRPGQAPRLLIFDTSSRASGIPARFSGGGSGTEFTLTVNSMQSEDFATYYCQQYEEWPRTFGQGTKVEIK

By IC50 is commonly meant the concentration at which inhibition is half-maximal. Lower therefore signals greater potency in that assay. As to 1443_C16 (PG16) (TCN-116) (antibody), the IC50, pseudovirus neutralization in [1] was > 50 µg/mL; in assay [17], < 0.0025 µg/mL. Besides, the IC50 (µg/ml), pseudovirus neutralization is 36.9 µg/mL in [2]; > 50 µg/mL in assay [3]; 1.42 µg/mL in [4]; > 50 µg/mL in [5]; 24.8 µg/mL in [6]; > 50 µg/mL in [8]. The IC50 (µg/ml), pseudovirus neutralization in assay [9] was > 50 µg/mL; in assay [10], 0.01 µg/mL; in [11], > 50 µg/mL; in assay [12], > 50 µg/mL; in assay [16], > 50 µg/mL; in assay [18], > 50 µg/mL. For the same substance, the IC50 is 0.02 µg/mL in [7], 0.03 µg/mL in assay [13], 0.03 µg/mL in [14] and > 50 µg/mL in [15].
For 2G12 (antibody), the IC50, pseudovirus neutralization was > 50 µg/mL in assay [1] and 0.75 µg/mL in assay [17]. Besides, the IC50 (µg/ml), pseudovirus neutralization in assay [2] was 3.85 µg/mL; in assay [3] it was 4.84 µg/mL; in assay [4], > 50 µg/mL; in assay [5], 9.24 µg/mL; in assay [6] it was > 50 µg/mL; in assay [8], 0.08 µg/mL. Moreover, the IC50 (µg/ml), pseudovirus neutralization in assay [9] was > 50 µg/mL; in assay [10], > 50 µg/mL; in assay [11], > 50 µg/mL; in [12] it was 1.45 µg/mL; in assay [16], 9.23 µg/mL; in assay [18], 13.8 µg/mL. In addition, the IC50 in assay [7] was > 50 µg/mL; in assay [13], > 50 µg/mL; in assay [14] it was 0.54 µg/mL; in assay [15], > 50 µg/mL.
As to 4E10 (antibody), the IC50, pseudovirus neutralization was determined as 5.1 µg/mL in [1] and 4.95 µg/mL in assay [17]. In addition, the IC50 (µg/ml), pseudovirus neutralization in assay [2] was 1.23 µg/mL; in [3], > 50 µg/mL; in [4], 12.2 µg/mL; in [5], 7.33 µg/mL; in assay [6] it was 10.5 µg/mL; in [8], 1.46 µg/mL. The IC50 (µg/ml), pseudovirus neutralization in assay [9] was found to be 1.84 µg/mL; in [10], 1.58 µg/mL; in [11], 42.9 µg/mL; in assay [12], 18.9 µg/mL; in [16], 0.44 µg/mL; in assay [18] it was 9.87 µg/mL. Besides, the IC50 in [7] is > 50 µg/mL; in assay [13], 0.23 µg/mL; in [14], 0.8 µg/mL; in assay [15], 0.64 µg/mL.
For b12 (antibody), the IC50, pseudovirus neutralization in [1] is > 25 µg/mL; in [17], 0.06 µg/mL. Further, the IC50 (µg/ml), pseudovirus neutralization in assay [2] is 1.93 µg/mL; in [3], > 50 µg/mL; in assay [4], 0.07 µg/mL; in assay [5] it was > 50 µg/mL; in assay [6], > 50 µg/mL; in [8], 0.75 µg/mL. Moreover, the IC50 (µg/ml), pseudovirus neutralization in [9] was > 50 µg/mL; in assay [10], > 50 µg/mL; in [11], > 50 µg/mL; in assay [12], 0.02 µg/mL; in assay [16], > 50 µg/mL; in assay [18], 13.6 µg/mL. The half-inhibitory concentration (IC50) in assay [7] is > 50 µg/mL; in assay [13], > 50 µg/mL; in assay [14], 0.89 µg/mL; in assay [15], > 50 µg/mL.
Take 5343_B08 (PGT-135) (antibody): the IC50 in assay [19] is 1.42 µg/mL; in assay [27], > 50 µg/mL. In addition, the IC50 (µg/mL), pseudovirus neutralization in assay [20], in [26], in assay [28], in assay [29], in assay [30] and in assay [31] was > 50 µg/mL each time. In [21], this substance showed an IC50, pseudovirus neutralization of 0.0139 µg/mL. Besides, the neutralization IC50 in assay [22] and in assay [23] was > 50 µg/mL each time. For the same substance, the IC50 neutralization amounted to 5.15 µg/mL in [24]; 0.131 µg/mL in assay [25]; 10.1 µg/mL in assay [32]; 0.329 µg/mL in assay [33]; 6.79 µg/mL in assay [34].
Turning to 5147_N06 (PGT-130) (antibody), the concentration for half-maximal inhibition (IC50) in assay [19] is 0.089 µg/mL; in assay [27], > 50 µg/mL. The IC50 (µg/mL), pseudovirus neutralization in assay [20] was > 50 µg/mL; in assay [26] it was > 50 µg/mL; in assay [28], 1.53 µg/mL; in assay [29], 0.006 µg/mL; in assay [30] it was > 50 µg/mL; in assay [31], > 50 µg/mL. Also, the IC50, pseudovirus neutralization in assay [21] was > 10 µg/mL. Also, the neutralization IC50 is 0.021 µg/mL in assay [22] and > 50 µg/mL in [23]. Moreover, the IC50 neutralization in [24] is > 50 µg/mL; in assay [25], 0.01 µg/mL; in assay [32] it was > 50 µg/mL; in assay [33], > 50 µg/mL; in [34], > 10 µg/mL.
As for 5345_I01 (PGT-137) (antibody), the figures for the IC50 in assay [19] and in assay [27] were 0.148 µg/mL and > 50 µg/mL, respectively. Also, the IC50 (µg/mL), pseudovirus neutralization in assay [20], in [26], in assay [28], in assay [29], in assay [30] and in assay [31] was > 50 µg/mL in each case. The neutralization IC50 in assay [22] and in [23] was > 50 µg/mL in each case. The IC50 neutralization in assay [24] was > 50 µg/mL; in assay [25], > 50 µg/mL; in assay [32] it was 21.5 µg/mL; in assay [33], > 50 µg/mL.
5114_A19 (PGT-128) (antibody): the IC50 in [19] was 0.003 µg/mL; in assay [27], > 50 µg/mL. The IC50 (µg/mL), pseudovirus neutralization in assay [20] was > 50 µg/mL; in assay [26], 0.051 µg/mL; in assay [28] it was 0.522 µg/mL; in [29], 0.032 µg/mL; in assay [30], > 50 µg/mL; in [31] it was 4.99 µg/mL. Besides, the neutralization IC50 in assay [22] turned out to be 0.006 µg/mL; in [23], 0.007 µg/mL. For the same substance, the IC50 neutralization in assay [24] is 1.48 µg/mL; in assay [25] it was 0.003 µg/mL; in assay [32], > 50 µg/mL; in [33], > 50 µg/mL.
Consider 5329_C19 (PGT-136) (antibody), for which the IC50 in assay [19] and in assay [27] was > 50 µg/mL in each case. The IC50 (µg/mL), pseudovirus neutralization in assay [20], in assay [26], in assay [28], in [29], in [30] and in [31] was > 50 µg/mL in each case. Also, in assay [21], the IC50, pseudovirus neutralization came out at 0.0915 µg/mL. Also, the neutralization IC50 in [22] was 20.2 µg/mL; in [23] it was > 50 µg/mL. Further, the IC50 neutralization in assay [24] was > 50 µg/mL; in assay [25], > 50 µg/mL; in [32], 7.52 µg/mL; in assay [33] it was > 50 µg/mL; in assay [34] it was > 10 µg/mL.
